Source: PMC4049620

How the values were obtained:
[1] = target: T9 SipA_(36-173), N-terminally His-tagged (entire extracellular region of SipA from S. pyogenes serotype T9 strain 90/306S) (Streptococcus pyogenes serotype T9 strain 90/306S); experiment: crystal structure; Space group P6_(4)22, two molecules in the asymmetric unit; octamer built by crystal symmetry; crystals grown at 18°C from 1 M NaKPO4 pH 7.0, 8% MPD
[2] = target: T9 SipA_(36-173), N-terminally His-tagged (entire extracellular region of SipA from S. pyogenes serotype T9 strain 90/306S) (Streptococcus pyogenes serotype T9 strain 90/306S); experiment: SEC + other: dynamic light scattering; Superdex S200 10/300 in 10 mM Tris.Cl pH 8.0, 100 mM NaCl; single peak, species of about 150 kDa after glycine treatment; data not shown
[3] = target: T9 SipA_(36-173), N-terminally His-tagged (entire extracellular region of SipA from S. pyogenes serotype T9 strain 90/306S) (Streptococcus pyogenes serotype T9 strain 90/306S); experiment: SAXS; Australian Synchrotron SAXS/WAXS beamline; dilution series 1-20 mg/ml; experimental curve compared by CRYSOL with the curve calculated from the crystal octamer (chi^2 = 1.29)

Measured: stoichiometry N

T9 SipA_(36-173), N-terminally His-tagged (entire extracellular region of SipA from S. pyogenes serotype T9 strain 90/306S) (domain or fragment)
8: all assays above
